The source of these data is patent US20040014191A1, “Nitroreductase enzymes” (priority 1999, published 2004).

Data set [1] relates to Cc1cc2nc3c(=O)[nH]c(=O)nc-3n(C[C@H](O)[C@H](O)[C@H](O)COP(=O)(O)OP(=O)(O)OC[C@H]3O[C@@H](n4cnc5c(N)ncnc54)[C@H](O)[C@@H]3O)c2cc1C. The data set is described as follows: purified protein, by the assay type.
Procedure: Quantitative assays using CB 1954 or SN 23862 as substrate were carried out at 37° C. by HPLC as previously described (2) (3). […] Incubation times varied according to the enzyme activity being studied.
Data set [2] in a line: Nitroreductase enzyme assay with CB 1954 as substrate (HPLC). Type of data set: biochemical. The note with it: for CB1954 (product formed / activity): Table 2, recombinant B. subtilis enzymes, crude lysates.
The nature of data set [3]: Nitroreductase enzyme assay with SN 23862 as substrate (HPLC). The format is biochemical. As to conditions: for SN23862 (activity): Table 2, recombinant B. subtilis enzymes, crude lysates; for SN 23862 acitvity: Table 6.
The format of data set [4] is biochemical. As to conditions: Table 6.
Data set [5] is classed as biochemical. As to conditions: Table 6. This is another data set of the same source.
The test system of data set [6] is recombinant enzymes (antigens). In words: Polyclonal antisera titres by ELISA. Type of data set: binding. As to conditions: rabbit antiserum; for Post-boost titre: 10 days after booster; for Pre-boost titre (50%): after 8 weeks. The method, then:
Polyclonal antisera were raised against recombinant enzymes by immunising rabbits with […] of protein in 50% PBS:50% Freund's complete adjuvant, total volume 400 μl. Blood was collected by ear bleed after 6-8 weeks and again 10 days after a booster immunisation of protein, and titre assessed by ELISA. 96-well plates were coated with 1 μg ml^−1 of the proteins and blocked with 10% v/v foetal calf serum (FCS), antibodies were diluted in assay buffer (1% FCS) and applied in doubling dilutions across the plate from 1 in 100 to 1 in 51 200 or 1 in 150 to 1 in 76 800. A secondary antibody conjugated with HRP (dilution 1 in 10 000) was used to develop the assay with 3,3′,5,5′-tetramethylbenzidine (TMB) as substrate.
Antisera to E. coli B NfnB and six novel proteins (Haemophilus influenzae and Campylobacter jejuni NfnB homologues, YdgI and YodC of Bacillus subtilis, YwrO of B. amyloliquefaciens and Porphyromonas gingivalis YwrO homologue) have been raised in rabbits by inoculation with 100 μg of protein in PBS+ Freund's complete adjuvant. Titres were assessed by ELISA after 8 weeks, and 10 days after a booster inoculation of a further 100 μg of protein per rabbit. Pre-immune sera were also tested.
96 well plates were coated overnight at 4° C. with the antigens at 1 μg/ml. After washing and blocking antisera were added in doubling dilutions in an appropriate range across the plates. The plates were developed using goat anti-rabbit IgG peroxidase conjugate with TMB as substrate, and read at 450 nm.
(In an ELISA, binding on a coated surface is turned into a signal by an enzyme label.)

Data set [7] can be described thus: Quinone reductase assay with menadione, cytochrome c as terminal electron acceptor. Type of data set: biochemical. Here is the method: (§1) Assays were carried out spectrophotometrically at 37° C. in 10 mM Tris pH 7.5 using cytochrome c as terminal electron acceptor.
A short description of data set [8]: Flavin reductase assay with FMN and FAD. Type of data set: biochemical. Here is the method:
as §1

Setting [9] is: other: cofactor NADH, 37° C., 10 mM Tris pH 7.5, pH 7.5.

Where two headings read alike, the source gives them in different places.

The term Km denotes the substrate concentration at which the rate is half of its maximum. As usually defined, the kcat is the maximal rate divided by the concentration of active sites. Broadly, the kcat/Km is the turnover number divided by the Michaelis constant. As to “YodC (Bacillus subtilis subsp. subtilis str. 168)”, in data set [1] (setting [9]), the Michaelis-Menten constant (Km) came out at 0.6 ± 0.1 µM, the kcat is 269 ± 4.9 s⁻¹ and the kcat/Km was 4.48e+08 M⁻¹ s⁻¹. Besides, in data set [1] (other: cofactor NADPH, 37.0 °C), the Michaelis-Menten constant (Km) turned out to be 2.4 ± 0.3 µM, the kcat was 283 ± 7.4 s⁻¹ and the kcat/Km was determined as 1.18e+08 M⁻¹ s⁻¹.

B1: YdeQ: nitroreductase from B. subtilis, SEQ ID NO: 8 (protein, listed as Bacillus subtilis)
chain: MDHMKTLVLVVHPNIESSRINKKWKEAVLSEPDVTVHDLYEKYRDQPIDVEFEQQQLLAHDRIVFQFPLYWYSSPPLLKQWFDEVFTFGWAHGPGGNKLKGKEWVTAMSIGSPEHSYQAGGYNLFSISELTKPFQASAHLVGMTYLPSFAEYRANTISDQEIAESANRYVKHITNIELNPKVRLQRYLKQLESVDLT
Consider B1, for which, in data set [2], the “reduction of CB1954: activity and product formed” value (from here on “reduction of CB1954”) is on record as “no activity with prodrugs”; the “CB1954 (product formed / activity)” value is “inactive”. Besides, in data set [3], the “activity with SN23862” value is “no activity with prodrugs” and the “SN23862 (activity)” value is “inactive”.

B2: H. pylori: nitroreductase from Helicobacter pylori, SEQ ID NO: 29 (protein, listed as Helicobacter pylori)
chain: MKFLDQEKRRQLLNERHSCKMFDSHYEFSSEELEEIAEIARLSPSSYNTQPWHFVMVTNKDLKKQIAAHSYFNEEMIKSASALMVVCSLKPSELLPTGHYMQNLYPESYKVRVIPSFAQMLGVRFNHSMQKLESYILEQCYIAVGQICMGVSLMGLDSCIIGGFDPLKVGEVLEERINKPKIACLIALGKRVAEASQKSRKSKVDAITWL
For B2, in data set [4], the Cofactor result is “NADPH”. Besides, the “CB 1954 product” value in data set [2] (Table 6, recombinant enzymes) is 4 > 2HX. In addition, in data set [2] (listed as H. pylori NfnB homologue), the “reduction of CB1954” value was “form the 4HX reduction product of CB1954”. Also, in data set [2] (listed as Helicobacter pylori enzyme), the “reduction of CB1954” value was “mixture of the 2 and 4HX”. Besides, in data set [3], the “activity with SN23862” value is “weak activity with SN23862” and the “SN 23862 acitvity” value is reported as “Weak”. Moreover, in data set [5], the Azo-Reductase entry is recorded as “No”.

B3: E. coli BNfnB (protein)
chain: MDIISVALKRHSTKAFDASKKLTPEQAEQIKTLLQYSPSSTNSQPWHFIVASTEEGKARVAKSAAGNYVFNERKMLDASHVVVFCAKTAMDDVWLKLVVDQEDADGRFATPEAKAANDKGRKFFADMHRKDLHDDAEWMAKQVYLNVGNFLLGVAALGLDAVPIEGFDAAILDAEFGLKEKGYTSLVVVPVGHHSVEDFNATLPKSRLPQNITLTEV
For B3, in data set [6], the Post-boost titre came to 11000 and the “Pre-boost titre (50%)” value is listed as 1300.

B4: Rat DTD: rat DT-diaphorase enzyme (protein, UniProt P05982 2-274, looked up)
NAD(P)H dehydrogenase …: AVRRALIVLAHAERTSFNYAMKEAAVEALKKKGWEVVESDLYAMNFNPLISRNDITGEPKDSENFQYPVESSLAYKEGRLSPDIVAEQKKLEAADLVIFQFPLYWFGVPAILKGWFERVLVAGFAYTYATMYDKGPFQNKKTLLSITTGGSGSMYSLQGVHGDMNVILWPIQSGILRFCGFQVLEPQLVYSIGHTPPDARVQVLEGWKKRLETVWEESPLYFAPSSLFDLNFQAGFLLKKEVQEEQKKNKFGLSVGHHLGKSIPADNQIKARK
Turning to B4, the CB1954 kcat in data set [2] (Table 1) is 0.07 s⁻¹. Besides, in data set [2] (Table 1, purified enzymes), the “CB 1954 product” value is given as 4HX. Moreover, in data set [3] (Table 1), the “SN23862 Km” value was “inactive” and the SN23862 kcat result was “inactive”.

B5: Bs YwrO: nitroreductase from B. subtilis, SEQ ID NO: 4 (protein, listed as Bacillus subtilis)
chain: MKILVLAVHPHMETSVVNKAWAEELSKHDNITVRDLYKEYPDEAIDVAKEQQLCEEYDRIVFQFPLYWYSSPPLLKKWQDLVLTYGWAFGSEGNALHGKELMLAVSTGSEAEKYQAGGANHYSISELLKPFQATSNLIGMKYLPPYVFYGVNYAAAEDISHSAKRLAEYIQQPFV
Take B5: in data set [2], the “reduction of CB1954” value was “inactive with either CB 1954 or SN 23862”; the “CB1954 (product formed / activity)” value was 4HX. For the same molecule, in data set [2] (listed as B. subtilis YwrO), the “reduction of CB1954” value is on record as “converts CB1954 to the 4HX derivative alone”. Moreover, in data set [3], the “activity with SN23862” value was “inactive with either CB 1954 or SN 23862” and the “SN23862 (activity)” value was “inactive”. Moreover, the “activity with SN23862” value in data set [3] (listed as B. subtilis YwrO) is “inactive against SN23862”.

B6: YrkL: nitroreductase from B. subtilis, SEQ ID NO: 6 (protein, listed as Bacillus subtilis)
chain: MKTLVIVIHPNLETSVVNKTWMNRLKQEKDITVHDLYGEYPNFIIDVEKEQQLLLDHERIVFQFPMYWYSSPALLKQWEDDVLTHGWAYGTGGTKLHGKELLLAISSGAQESDYQAGGEYNITISELIRPFQVTANYIGMRFLPAFTQYGTLHLSKEDVKNSAERLVDYLKAEH
As to B6, in data set [2], the “reduction of CB1954” value is given as “no activity”; the “CB1954 (product formed / activity)” value was “inactive”. Also, in data set [3], the “activity with SN23862” value is “no activity” and the “SN23862 (activity)” value is “inactive”.

B7: C. jejuni NfnB: nitroreductase from Campylobacter jejuni, SEQ ID NO: 23 (protein, listed as Campylobacter jejuni)
chain: MKKELEIFSTRYSCRNFKNEKLKKEDLNSILEIARLSPSSLGLEPWKFIVVQDEKRKEELSKICNQQKHVKDCAALIIIISRLDFLDYFEEKLRKRDMSETEMQKRLDTYMPFLKSLNQEQKISYAREQAHIALASILYSANALNIASCTIGGFDKEKLDSYLSLDIQKERSSLVVALGYCNDKKNPQKNRFSFDEVVKFI
Regarding B7, in data set [6], the Post-boost titre is recorded as 2500 and the “Pre-boost titre (50%)” value was 1100. Moreover, in data set [4], the Cofactor result was “NADPH”. In data set [7], the “activity with menadione / quinone reductase” value is recorded as “can use the quinone menadione as substrate”. Further, in data set [7] (Table 6), the Quinone reductase result is reported as “Yes”. Moreover, in data set [2], the “kcat (CB 1954)” value was determined as 6.1 s⁻¹; the kcat for CB1954 (text) came to 11.2 s⁻¹; the “reduction of CB1954” value is “only the 4HX reduction product”. The Km in data set [2] (Table 6, 37° C., read-out: Km CB 1954) was determined as 217 µM. For the same molecule, the “CB 1954 product” value in data set [2] (Table 6, recombinant enzymes) was 4HX. In data set [2] (read-out: Km for CB1954), the Km was 143 µM. For the same molecule, the Flavin reductase entry in data set [8] (Table 6) was “Yes”. The “flavin reductase activity” value in data set [8] (listed as C. jejuni NfnB homologue) was “can use the quinone menadione as substrate as well as azodyes and the flavins FMN and FAD”. In data set [8] (listed as C. jejuni protein), the “flavin reductase activity” value is “high affinity for both FAD and FMN”. Further, in data set [3], the “activity with SN23862” value is reported as “active with SN23862”. For the same molecule, the “SN 23862 acitvity, second number of the cell (kcat)” value in data set [3] (Table 6, HPLC assay) was found to be 6.4. In data set [3] (Table 6, HPLC assay, read-out: SN 23862 acitvity, first number of the cell (Km)), the Km was 224 µM. Moreover, the Azo-Reductase entry in data set [5] is listed as “Yes”.

B8: Synechocystis: nitroreductase from Synechocystis sp PCC 6803, SEQ ID NO: 19 (protein)
chain: MDTFDAIYQRRSVKHFDPDHRLTAEEERKLHEAAIQAPTSFNIQLWRFLIIRDPQLRQTIREKYGNQAQMTDASLLILVAADVNAWDKDPARYWRNAPREVANYLVGAIAFYGGKPQLQRDEAQRSIGMAMQNLMLAAKAMGYDSCPMIGFDLQKVAELVKLPADYAIGPMVAIGKRTEDARAKGGQTPLEELVWENSFA
modifications: Synechocystis PCC6803
For B8, the Cofactor entry in data set [4] is on record as “NADPH”. Besides, the “reduction of CB1954” value in data set [2] is “only the relatively non-toxic 2HX derivative”. Further, the “CB 1954 product” value in data set [2] (Table 6, recombinant enzymes) was found to be 2HX. Besides, in data set [3], the “activity with SN23862” value is “show activity with SN23862” and the “SN 23862 acitvity” value is reported as “Weak”. In addition, in data set [5], the Azo-Reductase result is given as “No”.
